Data taken from the DeepSol protein solubility set.

assay: soluble on expression in E. coli; label from the status in PepcDB or PDB records

| Sequence | soluble on expression in E. coli |
| --- | --- |
| MFMEFSAGLMPLETALTQMLSRITPLTAVETLPLVNCFGRILATDIVSPLDVPGFDNSAMDGYAVRVADLSADKPLPVAGKAFAGQPYQGEWPAGTCIRIMTGAPVPAGCEAVVMQEQTEQTDDGVRFTADVRCGQNIRRRGEDIRQDAVVFPAGTRLTTAELPVLASLGIADAQVVRKVRVALFSTGDELQLPGQPLEAGQIYDTNRLTIHLMLQQLGCEVINLGIIPDDPGKLRAAFIDADSQADVVISSGGVSVGEADYTKTILEELGEIAFWKLAIKPGKPFAFGKLSNSWFCGLPGNPVSAALTFYQLVQPLLAKLGGNTASAVPPRQRVRTASRLKKTPGRLDFQRGILQRSANGELEVTTTGHQGSHIFSSFSLGNCFIVLERERGNVEPGEWVEVEPFNALFGGL | not soluble |
| MARKSKGSRSSTRAVKQTDHFQVDVKLQSRPDHVRAPRANNENVNYTPVKEAKIQKILDHQLYNTHYVEYQVEMSDGTEEMLTEFDFDNKKTQKMLAEYKFKVTELEDDGSKEYVVEKIVAHRYPNDRLNQPLYLVMWRGFPDPVSNTEMWGEELENCQELLDAYNEEHDIDLSKTVMNKPPKKSKHQDTSDDSEESEDEEEKSPRKRSSKKRRAASVSDSDSDSDSDFDKKKWKKNKAKRSKRDDSSDDDSEMERRRKKSKKSKKSKKFKKSEKRKRAVNDSSSDDEDEEEKPEKRSKKSKKAVIDSSSEDEEEEKSSKKRSKKSKKESDEEQQASDSEEEVVEVKKNSKSPKKTPKKTAVKEESEESSGDEEEEVVKKKKSSKINKRKAKESSSDEEEEVEESPKKKTKSPRKSSKKSAAKEESEEESSDNEEEEEVDYSPKKKVKSPKKSSKKPAAKVESEEPSDNEEEEEEVEESPIKKDKTPRKYSRKSAAKVESTESSGNEEEEEVEESPKKKGKTPRKSSKKSAAVEESDNEEEDVEESPKKRTSPRKSSKKRAAKEESEESSDNEVEEVEDSPKKNDKTLRKSPRKPAAKVESEESFGNEEEEEVEESPKKKGKTPRKSSKKSAAKEESEESSDDEEEEQAEETNGSHTESPTKSKTDESDNSTSSDEDDE | not soluble |
| SDLWVQKMKTYFNRIDFDKDGAITRMDFESMAERFAKESEMKAEHAKVLMDSLTGVWDNFLTAVAGGKGIDETTFINSMKEMVKNPEAKSVVEGPLPLFFRAVDTNEDNNISRDEYGIFFGMLGLDKTMAPASFDAIDTNNDGLLSLEEFVIAGSDFFMNDGDSTNKVFWGPLV | soluble |
| MGSDKIHHHHHHVACKPKEKPSSATSLTDDALMDTVQRRTFNYFWDAAEPNSGLARERYHMDGEYPAGGPEIVTSGGSGFGIMAILAGIDRGYVSREEGLRRMEKIVGFLEKADRFKGAYPHWWNGETGHVQPFGQKDNGGDLVETAFLMQGLLAVHQYYAEGSAEEKKLAGRIDKLWREVDWNWYRHGGQNVLYWHWSPEYGWEMNFPVHGYNECLIMYILAAASPTHGVPAAVYHEGWAQNGAIVSPHKVEGIELHLRYQGGEAGPLFWAQYSFLGLDPVGLKDEYCPSYFNEMRNLTLVNREYCIRNPKHYKGYGPDCWGLTASYSVDGYAAHGPLERDDRGVISPTAALSSIVYTPDQSLQVMHHLYEMGDKVFGPYGFYDAFSETADWYPKRYLAIDQGPIAVMIENYRTGLLWKLFMSHPDVQNGLKKLGFNVKK | not soluble |
| MFVFMLLLLLPFTISKAKDFPANPIEKAGYKLDFSDEFNGPTLDREKWTDYYLPHWCKDPESAKANYRFENGSLVEYITEDQKPWCPEHDGTVRSSAIMSFDKSWIHNFSGTTDNHERNEWRGYTTKYGYFEIRAKLSNTGGGGHQAWWMVGMQDDTNDWFNSKQTGEIDILETFFSKKDTWRIAAYGWNDPNFQTSWTISEDKVPSGDPTSEYHIYAMEWTPTALKFYYDNELFKVIYGSPDYEMGTILNIYTDAGSGAHNDVWPKEWAIDYMRVWKPVDGYKESESLNNYLIRNRQTGKFLYIEENNDKVSYGDITLKNEKNAKWSKEYRDGYTLLKNNETGEYLNIENQTGYIEHGKVPKTWWSAQWSEVPVDGYTRFVNRWKPNMSIHTESYEGVLQYGNVPNTYWTSQWQLIPVE | soluble |
| MHKTIAVLLGIVCFLPVMAKAGGAETDATDASDVKTLFFNHDDRVPVADPTQSPWDAIGQLETASGNLCTATLISPHIALTAGHCLLTPPKGKPDKAVALRFVARKGVWRYEIHGIEGRVEPSLGRRLKADGDGWIVPPAAASWDFGLVILRYPPSGITPVPLFTGDKAALTAALKAADRKVTQSGYPEDHLNALYSHQDCVVTGWAQNAVLSHQCDTLPGDSGSPLLLHTDSGWQLIGVQSSAPAAKDRWRADNRAISVTGFRDKLKALAQD | not soluble |
| MSLPDATVVKAFLLDLQHRICAGLEQLDGQASFAADSWTRAEGGGGTSRVLTQGAVFEQAGVNFSHVTGAAMPASATAHRPELAGRSFEAMGVSLVIHPKNPYIPTTHANVRFFIAHKDGAEPVWWFGGGFDLTPYYPFEEDVREWHQSAKNLCQPFGDDVYPKYKKWCDEYFFLPHRNETRGVGGLFFDDLNQAGFDKSFDFMQAVGNGFLTAYAPIVERRKDTDYGERERDFQLYRRGRYVEFNLVYDRGTLFGLQTGGRTESILMSMPPLVRWQYAYTPAAGSPEADLYDNYLKPRDWVLEHHHHHH | not soluble |
| MGSDKIHHHHHHMVLSLSSHNVIQYLQEAGLCSSEDDASDKSELPGSSKNNSDLLVTLADNRKLLVKQEHNVKNNDVAPRELFQEWLFHQLLQQFPVLGNISAIAPLVVHFDEENSILVRNYLSEYLKLATFYHNNEIFPQEIATAIGTTLAGLHRATYNRREYRDFMATAPQGEFRYGFYNPAQGVESIGPEIFGTVPTEALKFYLLYQQSESLESAIADLAYDWNPCCLTHNDLKLNNILVHSRWKKLDNCLVRLINWEACSWGDPAFDLGTLLASYLRIWLNSLVVDPTIELQESLHLALTPLESLQPSIIALIRAYLNAFPMILEYRSDFIVRVIQFAGLALIHQIQDMITCRKSFNNTDICMLQVAKSLLTMPQQGVLTIFGISESEILNPVGKVHKLPQPVKEPQLLRLYYEKTRLRGC | not soluble |
| MGNVMEGKSVEELSSTECHQWYKKFMTECPSGQLTLYEFRQFFGLKNLSPSASQYVEQMFETFDFNKDGYIDFMEYVAALSLVLKGKVEQKLRWYFKLYDVDGNGCIDRDELLTIIQAIRAINPCSDTTMTAEEFTDTVFSKIDVNGDGELSLEEFIEGVQKDQMLLDTLTRSLDLTRIVRRLQNGEQDEEGADEAAEAAG | not soluble |
| GPGSMGTMKDKNKCTFRYFEVLPIDHEPEYQNGYVCDICFMEYSEGPFFHCSKSGKDVCLRCGGKMGLTPFTALVSKVMRPTVYWSESESSRAIALCYQIHRDILGCHFIDGANLLISTRDDLPSYFIDSNSCIEKSIVLSRSDIERRFPWAGEVAEVMGVNAVSFHETSACNDQSRLCFLSSFRVEGAFIEFRFSDGFCELVHCENGTIVAIRDSAVLSCFLMGLPVRWGRSLPKAASSVLEWYLKGGQR | not soluble |
| MAEQYSEINTDTLERVTEIFKALGDYNRIRIMELLSVSEASVGHISHQLNLSQSNVSHQLKLLKSVHLVKAKRQGQSMIYSLDDIHVATMLKQAIHHANHPKESGL | soluble |
| MGQPIITRDAGRYFLTDRIRHEVDWWNTPQARGEEPPPVQKPVAPGAMVIPLPPPATWGIPPCSLADGIARRESRRRFRAVPLTPEELAFLLWATQGVRARLNEAAVLRTVPSAGCRHPFETYLAILSVTGIEPAVYRYLPLDHALVLEREVPDLAATVTAAAHGQRFAGEAAVTFVWTAIPARTEWRYAEASYKVIALDAGHVCQNLYLACEAIGAGTCAIAAYRQALADELLGVDGREEFTVYLAPVGKV | not soluble |
| MMAAREQRSFRQLSLLRQFEGQSLLCASMNIPGPIKCSESLNKTFQSIINLVKEDLRGRIIFEREVHQKTGWEYYCLSDLPVSELKTKMIAIETKISIGRLMDLDVLHLVNGIPQPISRQELGFPRRQCYICQNDAKVCSRSRKHSVIEMQEAIAKFIKINH | not soluble |
| MESIKLSQKAEEEIVNAARMAALSNLTEKSQNLITLEDIAIYFGRHYQTVAKIISKLPNFPKPVTPVTVDQQNSRPRYIAGEVVRWGRINAKPY | not soluble |
| MGSDKIHHHHHHMEELLERVFSFSDVDKLIDFISYELQKPVILESADFFLLAYNSYYINHFDSANQQTIFSKKCPVQIFERFLKDGIIEKLKTEPEPFRVNKIESIGLNQRVVVSAKHKGEVMGYIWIQELDQNLTDEELDFLYETSFHVGKIIYKTNKLKQEKEEKAEDLIKRAIYQQFTSEKELRREAERINTVLPSMFSVVILHAANGDGEAVEDLKENIRSYLNLRDKVSHVLTIESNIVIVVASFSQKSSVSSAASEFINKLLTHFHFQKIPTPIYIGIGNEYNHLLKLGKSYTEALEVIKAAEITGNQENIPYEYAKLGIYRYLESIEQKNEFLEYENKDLALLKAKDEESSTELLKTLEVYLLNNCKTKPAAEQLFIHQNTLNYRIKQITEMTSIDLSDFRTRCQLYLDLMLMKKK | not soluble |
| MSLITDGIMHKVREVYQLLRKEPGIIVGVSNRHVHLSREDLETLFGEGYELTPVKELRQPGQYAAKETVTIVGPKGAIENVRVLGPVRKETQVEISRTDAFRLGVRPPVRDSGDLEGTPGIVIIGPNGILVKEKGVIIAKRHIHMHPKDAEYYGVKDKDIVKVIVESGDRRLIFDDVLIRVREDFALEFHVDTDEANAAMLNTGDLVYIVEFEGGSHHHHHH | soluble |
| IEERMNEYFNWLKQNYIFKELDSSTEITTPFKNHLNDFIRIYADTLPNNEICLSDDGLTINELEMLGIDINTKTRTKLIQNILNQFNLKLVDKEITADVKNESFAQSKHNLIQGILKIYDLTLTTKSNVTNIFYEEVFEFLYDQKIRGLAQVSVSGESGLKYSIDYIVSETKSQPEKLVNFTNNLDFNKITNEAYIYRDIKPNRPSRNKLEPIMLIIVNDVDHPINERAQTVAEHENLEILKWSNKSKIIETL | not soluble |
| MGSDKIHHHHHHMAQMTPSQEPQSAAEYDDRTTAAVKSVLIEIGQILGSFKGKFAIIGGAVPWLLLANEDMPHVGTLDVDVGLDAEALGDGEYATLVGALQGHGYAQREGLRRFQLVRQVPARDGGEAIDVVVDFLMPRDAEIVRNNPPLISDFAVQRADGADLAMRFYQLVAVAGSMPDGGTNRVEIAVCSIPALLAMKGHALAGRYKQKDAYDIYYCVRNYPAGIEALAQECRPLLGHASGERGFLHIADKFDAFDGYGPTCVRRFVEDTQALGDRTPDQWQQDAFGQIDALLRAMALRG | not soluble |
| MGSDKIHHHHHHAQTWENVHFNVDWQMNVPLNSNFADKFSGWGMNFEGKYDLTPYWAIGAFLNFHTNHRYVDRRTIPLTPTASLTTDQQQSAFQLPFGISVSYKLPDNRYVKPYFGVKSGAMYSQNSIYNNLVQWYERPWGFYVSPELGMDIHPVPYQRLGFHVAVYYSYATNKTDILTYSEDGRNSMGVRVGVCF | not soluble |
| MAEKPHMNLVVIGHVDHGKSTLVGHLLYRLGYIEEKKLKELEEQAKSRGKESFKFAWILDKMKEERERGITIDLTFMKFETKKYVFTIIDAPGHRDFVKNMITGASQADAAILVVSARKGEFEAGMSTEGQTREHLLLARTMGIEQIIVAVNKMDAPDVNYDQKRYEFVVSVLKKFMKGLGYQVDKIPFIPVSAWKGDNLIERSPNMPWYNGPTLVEALDQLQPPAKPVDKPLRIPVQNVYSIPGAGTVPVGRVETGVLRVGDKVVFMPPGVVGEVRSIEMHYQQLQQAEPGDNIGFAVRGVSKSDIKRGDVAGHLDKPPTVAEEFEARIFVIWHPSAITVGYTPVIHVHTASVSSRIIEIKAKLDPKTGQVVEQNPQFLKAGDAAIVRFKPVKPLVVEKFSEIPQLGRFAMRDMNRTVGIGIVTDVKPAKVDIKAK | soluble |
